According to patent publication US20020054882A1 (TAKARA SHUZO, published 2002):

B1: monoclonal antibody C179 (antibody)
chain 1: EVKLVESGGGLVQPGGSLRLSCGTSGFTLTDDYMTWVRQPPGKALEWLGFIRDRANGYTTEYSASVKGRFTISRDNSQSIVYLQMNTLRVEDSATYYCARPKGYFPYAMDYWGQGT
chain 2: DIQMTQSPASQSASLGESVTITCLASQTIGTWLAWYQQKPGKSPQLLIYAATSLADGVPSRFSGSGSGTKFSFKISSLQAEDFVSYYCQQLYSTPW

Columns and labels:
Test in all cases: cell-based or functional assay
[1] = molecular target: HA molecule of A1/FM/1/47 (H1N1) (influenza A virus A1/FM/1/47 (H1N1))
[2] = molecular target: HA molecule of A/Osaka/930/88 (H1N1) (influenza A virus A/Osaka/930/88 (H1N1))
[3] = molecular target: HA molecule of A/Bangkok/10/83 (H1N1) (influenza A virus A/Bangkok/10/83 (H1N1))
[4] = molecular target: HA molecule of A/Yamagata/120/86 (H1N1) (influenza A virus A/Yamagata/120/86 (H1N1))
[5] = molecular target: HA molecule of A/Ibaraki/1/90 (H3N2) (influenza A virus A/Ibaraki/1/90 (H3N2))
[6] = molecular target: HA molecule of A/Kaizuka/2/65 (H2N2) (influenza A virus A/Kaizuka/2/65 (H2N2))
[7] = molecular target: HA molecule of A/Adachi/2/57 (H2N2) (influenza A virus A/Adachi/2/57 (H2N2))
[8] = molecular target: HA molecule of A/Izumi/5/65 (H2N2) (influenza A virus A/Izumi/5/65 (H2N2))
[9] = molecular target: HA molecule of A/Suita/1/90 (H3N2) (influenza A virus A/Suita/1/90 (H3N2))
[10] = molecular target: HA molecule of A/Sichuan/2/87 (H3N2) (influenza A virus A/Sichuan/2/87 (H3N2))
[11] = molecular target: HA molecule of influenza B virus strain B/Nagasaki/1/87 (influenza B virus B/Nagasaki/1/87)
[12] = molecular target: HA molecule of A/Kitakyushu/159/93 (H3N2) (influenza A virus A/Kitakyushu/159/93 (H3N2))
[13] = molecular target: HA molecule of A/Fukuoka/C29/85 (H3N2) (influenza A virus A/Fukuoka/C29/85 (H3N2))
[14] = molecular target: HA molecule of A2/Aichi/2/68 (H3N2) (influenza A virus A2/Aichi/2/68 (H3N2))
[15] = molecular target: HA molecule of A/Kumamoto/1/65 (H2N2) (influenza A virus A/Kumamoto/1/65 (H2N2))
[16] = molecular target: HA molecule of A/PR/8/34 (H1N1) (influenza A virus A/PR/8/34 (H1N1), UniProt P03452 18-565)
Sequence of HA molecule of A/PR/8/34 (H1N1) (P03452 18-565): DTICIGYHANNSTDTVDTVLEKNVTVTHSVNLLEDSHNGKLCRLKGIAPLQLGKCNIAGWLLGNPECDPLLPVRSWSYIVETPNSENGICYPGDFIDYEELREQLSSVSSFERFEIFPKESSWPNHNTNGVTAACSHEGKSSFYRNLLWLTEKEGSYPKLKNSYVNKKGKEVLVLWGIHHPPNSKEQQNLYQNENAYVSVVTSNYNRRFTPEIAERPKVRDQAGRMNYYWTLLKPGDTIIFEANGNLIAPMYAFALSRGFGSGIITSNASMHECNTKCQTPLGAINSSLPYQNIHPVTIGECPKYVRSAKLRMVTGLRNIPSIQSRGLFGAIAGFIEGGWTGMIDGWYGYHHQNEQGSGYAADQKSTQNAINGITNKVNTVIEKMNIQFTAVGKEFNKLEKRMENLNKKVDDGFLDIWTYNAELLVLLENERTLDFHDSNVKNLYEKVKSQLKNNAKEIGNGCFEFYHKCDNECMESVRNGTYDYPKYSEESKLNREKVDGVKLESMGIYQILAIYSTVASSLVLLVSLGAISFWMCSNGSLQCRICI

Molecule | HI (hemagglutination inhibition test) (dilution ratio of ascites fluid) [1] | HI (hemagglutination inhibition test) (dilution ratio of ascites fluid) [2] | HI (hemagglutination inhibition test) (dilution ratio of ascites fluid) [3] | HI (hemagglutination inhibition test) (dilution ratio of ascites fluid) [4] | HI (hemagglutination inhibition test) (dilution ratio of ascites fluid) [5] | HI (hemagglutination inhibition test) (dilution ratio of ascites fluid) [6] | HI (hemagglutination inhibition test) (dilution ratio of ascites fluid) [7] | HI (hemagglutination inhibition test) (dilution ratio of ascites fluid) [8] | HI (hemagglutination inhibition test) (dilution ratio of ascites fluid) [9] | HI (hemagglutination inhibition test) (dilution ratio of ascites fluid) [10] | HI (hemagglutination inhibition test) (dilution ratio of ascites fluid) [11] | HI (hemagglutination inhibition test) (dilution ratio of ascites fluid) [12] | HI (hemagglutination inhibition test) (dilution ratio of ascites fluid) [13] | HI (hemagglutination inhibition test) (dilution ratio of ascites fluid) [14] | HI (hemagglutination inhibition test) (dilution ratio of ascites fluid) [15] | HI (hemagglutination inhibition test) [16]
monoclonal antibody C179 | < 32 | < 32 | < 32 | < 32 | < 32 | < 32 | < 32 | < 32 | < 32 | < 32 | < 32 | < 32 | < 32 | < 32 | < 32 | 
B1 |  |  |  |  |  |  |  |  |  |  |  |  |  |  |  | < 32 dilution ratio of ascites fluid
